From patent US20230093399A1, “METHODS FOR GENERATING PLURIPOTENT STEM CELL-DERIVED BROWN FAT CELLS” (AgeX Therapeutics, Inc., priority 2013, published 2023)

System: NP110SM cells
Assay: Differentiation of clonal embryonic progenitor line NP110SM in HyStem beads, Illumina microarray gene expression
Assay type: cell-based, human
Experimental: Differentiation medium is high glucose DMEM (CellGro Cat. No. 15-013-CV) with Pyruvate, 1 mM (Gibco Cat. 11360), Pen:Strep 100U/ml:100 ug/ml (Gibco Cat. No. 504284), Glutamax 2 mM (Gibco Cat. No. 35050), Dexamethasone 0.1 uM (Sigma, St. Louis, Mo., Cat. No. D1756-100), L-Proline 0.35 mM (Sigma Cat. No. D49752), 2-phospho-L-Ascorbic Acid 0.17 mM (Sigma, Cat. No. 49792, Fluka), and ITS Premix (BD, Franklin Lakes, N.J., sterile Cat. No. 47743-628) with a final concentration 6.25 ug/ml insulin, 6.25 ug/ml transferrin, 6.25 ng/ml selenious acid, serum albumin 1.25 mg/ml, 5.35 ug/ml linoleic acid. In various differentiation conditions, the Differentiation medium is supplemented with various growth factors or other differentiation factors as described herein.
HyStem-C (BioTime, Inc. Alameda, Calif.) is a matrix composed of thiol-modified gelatin and thiolated hyaluronan crosslinked in vivo or in vitro with (polyethylene glycol diacrylate (PEGDA). We observed that clonal human embryonic progenitor cell lines such as those described in the present invention, could be efficiently differentiated in high-density cultures of said crosslinked collagen and hyaluronate in the following manner. HyStem-C® (BioTime, CA, USA) is reconstituted following the manufacturer's instructions. Briefly, the HyStem component (10 mg of thiol-modified hyaluronan) is dissolved in 1.0 ml of degassed deionized water for approximately 20 min to prepare a 1% w/v solution. The Gelin-S® component (10 mg of thiol-modified gelatin (BioTime)) is dissolved in 1.0 ml of degassed deionized water to prepare a 1% w/v solution, and polyethylene glycol diacrylate (10 mg of PEGDA) is dissolved in 0.5 ml of degassed deionized water to prepare a 2% w/v solution. Then, HyStem (1 ml, 1% w/v) is mixed with Gelin-S (1 ml, 1% w/v) immediately before use. Pelleted cells are resuspended in the recently prepared HyStem:Gelin-S (1:1 v/v) mix described above. Upon the addition of the PEGDA cross-linker, the cell suspension, at a final concentration of 2.0×10^7 cells/ml is aliquoted (25 μl/aliquot) into six-well plates (Corning® 3516; VWR, PA, USA) after partial gelation. Following complete gelation (20 min), Differentiation Medium is added to each well. Plates were then placed in a humidified incubator at 37° C. with ambient O2 and 10% CO2, and the cells were fed three-times weekly. At the desired time point, hydrogel constructs were either fixed and processed for immunohistochemical analysis or lysed using RLT (Qiagen, CA, USA) with 1% beta-mercaptoethanol for total RNA to analyze transcript expression using quantitative real-time PCR (qRT-PCR) and/or whole-genome microarray.
Total RNA was extracted directly from cells growing in 6-well plates or 10 cm tissue culture dishes using Qiagen RNeasy mini kits according to the manufacturer's instructions. RNA concentrations were measured using a Beckman DU530 or Nanodrop spectrophotometer and RNA quality was determined by denaturing agarose gel electrophoresis or using an Agilent 2100 bioanalyzer. Whole-genome expression analysis was carried out using Illumina Human Ref-8v3 or Human HT-12 v4 BeadArrays, and RNA levels for certain genes were confirmed by qRT-PCR. For the Illumina BeadArrays, total RNA was linearly amplified and biotin-labeled using Illumina TotalPrep kits (Life Technologies, Temecula, Calif., USA), and cRNA was quality-controlled using an Agilent 2100 Bioanalyzer. The cRNA was hybridized to Illumina BeadChips, processed, and read using a BeadStation array reader according to the manufacturer's instructions (Illumina, San Diego, Calif., USA). Values of less than 120 relative fluorescence units (RFUs) were considered as nonspecific background signal.
The line NP110SM was then exposed to differentiation in the BAT cell differentiation protocols described herein. […]

[1] = NP110SM, 14 days HyStem beads, 50 ng/ml BMP4, FIG. 15 sample 6

B1: BMP4: Bone Morphogenetic Protein 4, TGF-beta superfamily member (protein, UniProt P12644 293-408, looked up)
Bone morphogenetic protein 4: SPKHHSQRARKKNKNCRRHSLYVDFSDVGWNDWIVAPPGYQAFYCHGDCPFPLADHLNSTNHAIVQTLVNSVNSSIPKACCVPTELSAISMLYLDEYDKVVLKNYQEMVVEGCGCR
NP110SM, 50 ng/ml of BMP4, 5 μm rosiglitazone, embedded in HyStem beads, 14-21 days
  viability as measured by RNA yields and levels of the BAT markers: highest viability
[1]
  ADIPOQ expression: markedly up-regulating
  C19ORF80 expression: markedly up-regulating
  UCP1 expression: low or undetectable level
NP110SM, HyStem beads supplemented with 10 ng/ml BMP4, FIG. 2
  expression of C19ORF80 transcript: highest expression
Addition of 50 ng/ml BMP4 to 5.0 μM rosiglitazone
  viability of differentiating NP110SM cells as evidenced by RNA yields: appeared to improve the viability
